B1: S. cerevisiae Abp1 (full length; SH3 domain 535-592 mutated) / Hua2 (parent complex)
chain 1: MALEPIDYTTHSREIDAEYLKIVRGSDPDTTWLIISPNAKKEYEPESTGSSFHDFLQLFDETKVQYGLARVSPPGSDVEKIIIIGWCPDSAPLKTRASFAANFAAVANNLFKGYHVQVTARDEDDLDENELLMKISNAAGARYSIQTSSKQQGKASTPPVKKSFTPSKSPAPVSKKEPVKTPSPAPAAKISSRVNDNNDDDDWNEPELKERDFDQAPLKPNQSSYKPIGKIDLQKVIAEEKAKEDPRLVQKPTAAGSKIDPSSDIANLKNESKLKRDSEFNSFLGTTKPPSMTESSLKNDDDKVIKGFRNEKSPAQLWAERKAKQNSGNAETKAEAPKPEVPEDEPEGEPDVKDLKSKFEGLAASEKEEEEMENKFAPPPKKSEPTIISPKPFSKPQEPVKAEEAEQPKTDYKKIGNPLPGMHIEADNEEEPEENDDDWDDDEDEAAQPPLPSRNVASGAPVQKEEPEQEEIAPSLPSRNSIPAPKQEEAPEQAPEEEIEEEAEEAAPQLPSRSSAAPPPPPRRATPEKKPKENPWATAEYDYDAAEDNELTFVENDKIINIEFVDDDWWLGELEKDGSKGLFPSNYVSLGN
chain 2: MQQTKFGKMYLDHDSVVEYSEDEIVEADRITLGYKKRLSMIENQMRHLLEDFSLDVQQIEPILADLQKYYDAFLQLLQKRNKSLQCKRSTHQPVPSPMNSQTSTNAKVNLSGKLMKFQLNSVQKFDEENILRILQNKIEFEHYFQIDKGKKQKVLLLAVYQCLNGPTRLHKVLNIEGIIHNNSIRTILGKQVSSSKWTVFLYDVKLVLLAHRQDVPNLETSKMIVRYGDLFPCALYFKDHTAY

Variants of: B1
Test: DHFR protein-fragment complementation in yeast (Abp1-DHFR F[1,2] x partner-DHFR F[3]), deep mutational scanning, second methotrexate selection vs reference; S. cerevisiae, DHFR-PCA selection in liquid with methotrexate at 30 C, two 72 h selections (the score uses the second); reference = the pre-selection culture

Variant	screen value
chain 1 D568T	-2.96 DMS score: mean over two replicates of log2(f_test/f_ref + 0.5)/ln 2, minus the synonymous-codon median (not a log2 …
chain 1 G591P	0.961 DMS score: mean over two replicates of log2(f_test/f_ref + 0.5)/ln 2, minus the synonymous-codon median (not a log2 …
chain 1 G591R	-0.62 DMS score: mean over two replicates of log2(f_test/f_ref + 0.5)/ln 2, minus the synonymous-codon median (not a log2 …
chain 1 G591E	1.01 DMS score: mean over two replicates of log2(f_test/f_ref + 0.5)/ln 2, minus the synonymous-codon median (not a log2 …
chain 1 A546K	-0.851 DMS score: mean over two replicates of log2(f_test/f_ref + 0.5)/ln 2, minus the synonymous-codon median (not a log2 …
chain 1 A546D	0.862 DMS score: mean over two replicates of log2(f_test/f_ref + 0.5)/ln 2, minus the synonymous-codon median (not a log2 …
chain 1 E550Q	-2.17 DMS score: mean over two replicates of log2(f_test/f_ref + 0.5)/ln 2, minus the synonymous-codon median (not a log2 …
chain 1 S579V	-0.988 DMS score: mean over two replicates of log2(f_test/f_ref + 0.5)/ln 2, minus the synonymous-codon median (not a log2 …
chain 1 A545S	0.0984 DMS score: mean over two replicates of log2(f_test/f_ref + 0.5)/ln 2, minus the synonymous-codon median (not a log2 …
chain 1 A545K	0.224 DMS score: mean over two replicates of log2(f_test/f_ref + 0.5)/ln 2, minus the synonymous-codon median (not a log2 …
chain 1 E547N	-1.94 DMS score: mean over two replicates of log2(f_test/f_ref + 0.5)/ln 2, minus the synonymous-codon median (not a log2 …
chain 1 K580C	-0.508 DMS score: mean over two replicates of log2(f_test/f_ref + 0.5)/ln 2, minus the synonymous-codon median (not a log2 …
chain 1 K580I	-0.165 DMS score: mean over two replicates of log2(f_test/f_ref + 0.5)/ln 2, minus the synonymous-codon median (not a log2 …
chain 1 N561D	-0.211 DMS score: mean over two replicates of log2(f_test/f_ref + 0.5)/ln 2, minus the synonymous-codon median (not a log2 …
chain 1 E555G	-0.256 DMS score: mean over two replicates of log2(f_test/f_ref + 0.5)/ln 2, minus the synonymous-codon median (not a log2 …
chain 1 E555S	0.724 DMS score: mean over two replicates of log2(f_test/f_ref + 0.5)/ln 2, minus the synonymous-codon median (not a log2 …
chain 1 E555D	-1 DMS score: mean over two replicates of log2(f_test/f_ref + 0.5)/ln 2, minus the synonymous-codon median (not a log2 …
chain 1 E540A	-0.942 DMS score: mean over two replicates of log2(f_test/f_ref + 0.5)/ln 2, minus the synonymous-codon median (not a log2 …
chain 1 N549V	1.32 DMS score: mean over two replicates of log2(f_test/f_ref + 0.5)/ln 2, minus the synonymous-codon median (not a log2 …
chain 1 N549K	-0.863 DMS score: mean over two replicates of log2(f_test/f_ref + 0.5)/ln 2, minus the synonymous-codon median (not a log2 …
chain 1 V565K	-2.9 DMS score: mean over two replicates of log2(f_test/f_ref + 0.5)/ln 2, minus the synonymous-codon median (not a log2 …
chain 1 V565M	-1.83 DMS score: mean over two replicates of log2(f_test/f_ref + 0.5)/ln 2, minus the synonymous-codon median (not a log2 …
chain 1 V565C	0.907 DMS score: mean over two replicates of log2(f_test/f_ref + 0.5)/ln 2, minus the synonymous-codon median (not a log2 …
chain 1 N556K	-0.169 DMS score: mean over two replicates of log2(f_test/f_ref + 0.5)/ln 2, minus the synonymous-codon median (not a log2 …
chain 1 P535K	-0.44 DMS score: mean over two replicates of log2(f_test/f_ref + 0.5)/ln 2, minus the synonymous-codon median (not a log2 …
chain 1 N592H	-1.31 DMS score: mean over two replicates of log2(f_test/f_ref + 0.5)/ln 2, minus the synonymous-codon median (not a log2 …

Variant	screen value
chain 1 D544E	-0.1 DMS score: mean over two replicates of log2(f_test/f_ref + 0.5)/ln 2, minus the synonymous-codon median (not a log2 …
chain 1 T538F	0.0744 DMS score: mean over two replicates of log2(f_test/f_ref + 0.5)/ln 2, minus the synonymous-codon median (not a log2 …
chain 1 T538E	-0.61 DMS score: mean over two replicates of log2(f_test/f_ref + 0.5)/ln 2, minus the synonymous-codon median (not a log2 …
chain 1 Y587A	-2.26 DMS score: mean over two replicates of log2(f_test/f_ref + 0.5)/ln 2, minus the synonymous-codon median (not a log2 …
chain 1 Y587F	-0.234 DMS score: mean over two replicates of log2(f_test/f_ref + 0.5)/ln 2, minus the synonymous-codon median (not a log2 …
chain 1 E575A	0.223 DMS score: mean over two replicates of log2(f_test/f_ref + 0.5)/ln 2, minus the synonymous-codon median (not a log2 …
chain 1 L582R	-1.77 DMS score: mean over two replicates of log2(f_test/f_ref + 0.5)/ln 2, minus the synonymous-codon median (not a log2 …
chain 1 L571F	0.614 DMS score: mean over two replicates of log2(f_test/f_ref + 0.5)/ln 2, minus the synonymous-codon median (not a log2 …
chain 1 L571E	1.04 DMS score: mean over two replicates of log2(f_test/f_ref + 0.5)/ln 2, minus the synonymous-codon median (not a log2 …
chain 1 F553I	0.88 DMS score: mean over two replicates of log2(f_test/f_ref + 0.5)/ln 2, minus the synonymous-codon median (not a log2 …
chain 1 Y541Q	-2.54 DMS score: mean over two replicates of log2(f_test/f_ref + 0.5)/ln 2, minus the synonymous-codon median (not a log2 …
chain 1 L574N	0.59 DMS score: mean over two replicates of log2(f_test/f_ref + 0.5)/ln 2, minus the synonymous-codon median (not a log2 …
chain 1 T552R	-1.02 DMS score: mean over two replicates of log2(f_test/f_ref + 0.5)/ln 2, minus the synonymous-codon median (not a log2 …
chain 1 E563I	-1.57 DMS score: mean over two replicates of log2(f_test/f_ref + 0.5)/ln 2, minus the synonymous-codon median (not a log2 …
chain 1 E563C	-0.992 DMS score: mean over two replicates of log2(f_test/f_ref + 0.5)/ln 2, minus the synonymous-codon median (not a log2 …
chain 1 D566K	-2.34 DMS score: mean over two replicates of log2(f_test/f_ref + 0.5)/ln 2, minus the synonymous-codon median (not a log2 …
chain 1 S585R	-1.55 DMS score: mean over two replicates of log2(f_test/f_ref + 0.5)/ln 2, minus the synonymous-codon median (not a log2 …
chain 1 S585A	1.11 DMS score: mean over two replicates of log2(f_test/f_ref + 0.5)/ln 2, minus the synonymous-codon median (not a log2 …
chain 1 K576N	-0.58 DMS score: mean over two replicates of log2(f_test/f_ref + 0.5)/ln 2, minus the synonymous-codon median (not a log2 …
chain 1 K576S	-0.288 DMS score: mean over two replicates of log2(f_test/f_ref + 0.5)/ln 2, minus the synonymous-codon median (not a log2 …
chain 1 W536S	-0.564 DMS score: mean over two replicates of log2(f_test/f_ref + 0.5)/ln 2, minus the synonymous-codon median (not a log2 …
chain 1 W536T	-0.062 DMS score: mean over two replicates of log2(f_test/f_ref + 0.5)/ln 2, minus the synonymous-codon median (not a log2 …
chain 1 W536F	-0.302 DMS score: mean over two replicates of log2(f_test/f_ref + 0.5)/ln 2, minus the synonymous-codon median (not a log2 …
chain 1 D548S	0.431 DMS score: mean over two replicates of log2(f_test/f_ref + 0.5)/ln 2, minus the synonymous-codon median (not a log2 …
chain 1 D548L	-0.0418 DMS score: mean over two replicates of log2(f_test/f_ref + 0.5)/ln 2, minus the synonymous-codon median (not a log2 …
chain 1 I560Q	-0.419 DMS score: mean over two replicates of log2(f_test/f_ref + 0.5)/ln 2, minus the synonymous-codon median (not a log2 …

— article PMC7954794 (2021)
